# Reference: article doi:10.1101/2023.06.19.545549, “DnaK duplicates and regionally evolves for the increase of proteomic complexity in bacteria” (bioRxiv, 2023)
# Target: the molecule itself
# Experiment: SDS-PAGE of the purified protein (monomer and dimer bands); purified MxDnaKs and chimeras on SDS-PAGE without DTT treatment; band compositions confirmed by LC/MS
protein,measurement,value
"His6-MxDnaK2, purified recombinant (natural protein, Myxococcus xanthus DK1622, UniProt P95334 1-607, looked up, MxDnaK2 (MXAN_6671), DnaK of Myxococcus xanthus DK1622; gene amplified from genomic DNA into pET28A; His6-MxDnaK2 printed as 65.3 kDa; source: E. coli BL21 (DE3), purified (Ni-NTA); not shown: His6, N-terminal, kept) MGKVIGIDLGTTNSCVAVMEGGEPVVIPNSEGSRTTPSMVGFTDSGERLVGQIAKRQAITNPENTVFAAKRLIGRKFDSPEGKKAIGVSPFKVASSPNGDAWVEIRGKGYSPPEVSAIVLMKMKQTAEDYLGEQVSEAVITVPAYFNDSQRQATKDAGRIAGLSVLRIINEPTAAALAYGLDKVQDGGTERIAVYDLGGGTFDISILELNAGVFEVKSTNGDTFLGGEDFDQRLIDYLAKRFAESNNGLDLRKDRMALQRLKEAAERAKHELSSAPETEVNLPFITADASGPKHLTETVDRATFEALVTDLIDRTIEPCRIALKDAGIPAQQINQVLLVGGMTRMPRVQQKVKEFFGREPHKGINPDEVVAVGAAIQGGVLKGEVKDVLLLDVTPLSLGVETAGGVFTKIIDKNTTIPCKKSQVFSTAVDNQPLVSVHVLQGEREMAADNKTLARFELVGIPPAPRGVPQIEVSFDIDANGIVHVSAKDLGTGKVQQVRVVSNSGLSEAEIQAMISDAQSHASDDKKKKELAELRNNADGLIYTTEKSLEEYASLLSEKDREEIKADLERLKEVLNTSDAAVLKESFQRLEGSAYRIADAIYTGQAS",stoichiometry N,2
